{"source": "patent US10562947B2", "about": "“Compositions and methods for preventing or treating diseases, conditions or processes characterized by aberrant fibroblast proliferation and extracellular matrix deposition” (MOERAE MATRIX, INC., priority 2011, dated 2020)", "test_in_all_cases": "Kinase Profiling Assay", "assay_type_in_all_cases": "biochemical", "conditions_in_all_cases": "100 μM peptide", "key": {"Abl(Y253F)(h)": {"biological_target": "Abl(Y253F)(h) (Homo sapiens, UniProt P00519, Y253F)", "procedure": "(§1) Every kinase activity measurement was conducted in duplicate.\n(§2) In addition to determining the IC50 of the compound, the specificity of MK2 inhibitory peptides was assessed by examining activities of all 266 human kinases available for testing in the Millipore kinase profiling service (Table 1)."}, "Abl(Q252H)(h)": {"biological_target": "Abl(Q252H)(h) (Homo sapiens, UniProt P00519, Q252H)", "procedure": "as §1, §2"}, "NEK11(h)": {"biological_target": "T1, NEK11(h) (Homo sapiens, UniProt Q8NG66)", "T1 sequence (Q8NG66 1-645)": "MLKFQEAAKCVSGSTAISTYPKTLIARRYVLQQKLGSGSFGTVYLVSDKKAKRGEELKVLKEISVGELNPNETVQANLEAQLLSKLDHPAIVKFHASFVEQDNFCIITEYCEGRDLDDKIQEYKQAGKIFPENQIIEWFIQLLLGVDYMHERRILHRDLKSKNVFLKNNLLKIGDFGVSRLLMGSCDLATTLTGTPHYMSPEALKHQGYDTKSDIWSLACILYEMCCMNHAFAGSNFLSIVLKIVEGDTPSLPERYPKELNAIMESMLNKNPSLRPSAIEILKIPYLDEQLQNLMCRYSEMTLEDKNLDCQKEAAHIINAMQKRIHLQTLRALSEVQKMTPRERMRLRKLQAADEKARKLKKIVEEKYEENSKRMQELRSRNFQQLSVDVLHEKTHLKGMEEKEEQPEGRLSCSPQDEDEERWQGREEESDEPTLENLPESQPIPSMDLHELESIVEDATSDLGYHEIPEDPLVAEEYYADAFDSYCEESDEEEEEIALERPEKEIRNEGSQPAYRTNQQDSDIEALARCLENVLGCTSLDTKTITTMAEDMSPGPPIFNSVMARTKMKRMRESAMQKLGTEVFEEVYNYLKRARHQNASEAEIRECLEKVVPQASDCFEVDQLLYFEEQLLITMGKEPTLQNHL", "procedure": "as §1, §2"}, "F1t4(h)": {"biological_target": "F1t4(h) (Homo sapiens, UniProt P35916)", "sequence (P35916 25-1363)": "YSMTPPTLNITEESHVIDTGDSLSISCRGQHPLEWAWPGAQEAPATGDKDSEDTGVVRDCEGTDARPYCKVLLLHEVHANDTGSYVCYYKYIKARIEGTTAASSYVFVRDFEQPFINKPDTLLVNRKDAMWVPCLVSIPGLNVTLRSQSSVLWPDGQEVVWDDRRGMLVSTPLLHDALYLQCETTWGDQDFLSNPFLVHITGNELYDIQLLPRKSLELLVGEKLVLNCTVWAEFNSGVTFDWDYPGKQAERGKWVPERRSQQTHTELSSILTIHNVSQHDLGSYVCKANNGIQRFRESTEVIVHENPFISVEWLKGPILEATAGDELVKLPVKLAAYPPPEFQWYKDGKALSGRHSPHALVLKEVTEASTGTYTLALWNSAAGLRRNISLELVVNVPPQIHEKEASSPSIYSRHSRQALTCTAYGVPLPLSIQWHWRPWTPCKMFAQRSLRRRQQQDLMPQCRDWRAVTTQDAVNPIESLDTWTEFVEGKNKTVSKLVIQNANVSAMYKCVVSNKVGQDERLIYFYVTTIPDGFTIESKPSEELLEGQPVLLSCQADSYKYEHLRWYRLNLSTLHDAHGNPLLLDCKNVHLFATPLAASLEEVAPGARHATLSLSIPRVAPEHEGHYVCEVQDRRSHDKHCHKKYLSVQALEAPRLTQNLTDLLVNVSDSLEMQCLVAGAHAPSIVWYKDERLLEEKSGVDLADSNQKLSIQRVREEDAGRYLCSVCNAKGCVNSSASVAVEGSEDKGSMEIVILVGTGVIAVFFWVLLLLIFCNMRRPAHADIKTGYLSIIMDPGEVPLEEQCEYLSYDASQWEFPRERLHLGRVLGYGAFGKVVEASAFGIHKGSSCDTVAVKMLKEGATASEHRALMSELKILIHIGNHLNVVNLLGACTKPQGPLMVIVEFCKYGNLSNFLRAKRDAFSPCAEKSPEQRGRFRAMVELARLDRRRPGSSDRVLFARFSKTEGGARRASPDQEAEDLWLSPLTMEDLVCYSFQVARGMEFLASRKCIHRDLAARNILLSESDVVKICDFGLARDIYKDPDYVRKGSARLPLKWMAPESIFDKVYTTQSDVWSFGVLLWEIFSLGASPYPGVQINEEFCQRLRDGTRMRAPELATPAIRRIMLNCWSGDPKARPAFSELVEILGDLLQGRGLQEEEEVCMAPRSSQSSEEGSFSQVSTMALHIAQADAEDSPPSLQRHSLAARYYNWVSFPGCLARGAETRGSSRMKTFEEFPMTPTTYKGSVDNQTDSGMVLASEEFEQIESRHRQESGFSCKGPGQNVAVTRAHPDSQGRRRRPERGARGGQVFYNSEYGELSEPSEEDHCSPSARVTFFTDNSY", "procedure": "as §1, §2"}, "EphA8(h)": {"biological_target": "T2, EphA8(h) (Homo sapiens, UniProt P29322)", "T2 sequence (P29322 28-1005)": "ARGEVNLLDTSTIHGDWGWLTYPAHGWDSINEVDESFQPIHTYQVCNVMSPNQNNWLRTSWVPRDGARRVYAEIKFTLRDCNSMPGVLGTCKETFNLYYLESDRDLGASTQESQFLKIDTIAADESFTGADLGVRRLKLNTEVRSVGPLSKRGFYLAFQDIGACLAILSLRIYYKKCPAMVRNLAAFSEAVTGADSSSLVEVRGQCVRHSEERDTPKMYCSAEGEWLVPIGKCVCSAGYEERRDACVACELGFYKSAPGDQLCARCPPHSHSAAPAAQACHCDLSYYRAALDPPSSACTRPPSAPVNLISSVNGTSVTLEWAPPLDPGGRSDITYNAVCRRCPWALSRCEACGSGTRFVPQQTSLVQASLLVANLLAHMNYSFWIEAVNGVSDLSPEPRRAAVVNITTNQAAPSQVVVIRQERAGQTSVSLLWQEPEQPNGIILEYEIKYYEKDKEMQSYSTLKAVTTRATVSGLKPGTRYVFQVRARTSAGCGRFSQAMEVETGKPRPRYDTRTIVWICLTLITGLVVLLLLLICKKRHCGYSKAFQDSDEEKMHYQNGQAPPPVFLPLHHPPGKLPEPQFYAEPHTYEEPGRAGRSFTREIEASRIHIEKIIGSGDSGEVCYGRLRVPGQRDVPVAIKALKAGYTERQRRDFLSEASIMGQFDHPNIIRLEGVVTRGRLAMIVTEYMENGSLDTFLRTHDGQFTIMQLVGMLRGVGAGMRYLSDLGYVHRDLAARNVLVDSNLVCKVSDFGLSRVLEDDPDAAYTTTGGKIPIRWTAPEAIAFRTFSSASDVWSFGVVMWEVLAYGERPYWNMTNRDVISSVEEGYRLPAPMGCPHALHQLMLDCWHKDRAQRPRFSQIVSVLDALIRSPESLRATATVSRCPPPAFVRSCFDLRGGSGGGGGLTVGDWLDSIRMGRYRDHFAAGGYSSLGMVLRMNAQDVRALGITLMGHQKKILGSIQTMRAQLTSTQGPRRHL", "procedure": "as §1, §2"}, "ULK3(h)": {"biological_target": "T3, ULK3(h) (Homo sapiens, UniProt Q6PHR2)", "T3 sequence (Q6PHR2 1-472)": "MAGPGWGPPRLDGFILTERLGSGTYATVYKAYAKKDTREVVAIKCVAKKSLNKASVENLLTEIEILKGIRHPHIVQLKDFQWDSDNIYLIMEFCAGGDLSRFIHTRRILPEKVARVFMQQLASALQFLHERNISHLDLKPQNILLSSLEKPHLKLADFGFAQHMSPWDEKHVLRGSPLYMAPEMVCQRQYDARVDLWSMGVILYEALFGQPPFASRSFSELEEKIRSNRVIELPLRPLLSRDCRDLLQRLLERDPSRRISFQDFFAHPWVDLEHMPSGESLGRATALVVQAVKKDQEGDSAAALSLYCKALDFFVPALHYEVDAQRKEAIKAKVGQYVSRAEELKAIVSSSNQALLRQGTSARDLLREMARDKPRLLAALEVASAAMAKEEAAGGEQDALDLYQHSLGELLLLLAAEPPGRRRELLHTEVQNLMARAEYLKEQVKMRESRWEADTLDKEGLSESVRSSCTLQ", "procedure": "as §1, §2"}, "IR(h)": {"biological_target": "T4, IR(h) (Homo sapiens, UniProt P06213)", "T4 construct": "purchased Millipore", "procedure": "as §1, §2"}, "Lyn(h)": {"biological_target": "Lyn(h) (Homo sapiens, UniProt P07948)", "sequence (P07948 whole entry)": "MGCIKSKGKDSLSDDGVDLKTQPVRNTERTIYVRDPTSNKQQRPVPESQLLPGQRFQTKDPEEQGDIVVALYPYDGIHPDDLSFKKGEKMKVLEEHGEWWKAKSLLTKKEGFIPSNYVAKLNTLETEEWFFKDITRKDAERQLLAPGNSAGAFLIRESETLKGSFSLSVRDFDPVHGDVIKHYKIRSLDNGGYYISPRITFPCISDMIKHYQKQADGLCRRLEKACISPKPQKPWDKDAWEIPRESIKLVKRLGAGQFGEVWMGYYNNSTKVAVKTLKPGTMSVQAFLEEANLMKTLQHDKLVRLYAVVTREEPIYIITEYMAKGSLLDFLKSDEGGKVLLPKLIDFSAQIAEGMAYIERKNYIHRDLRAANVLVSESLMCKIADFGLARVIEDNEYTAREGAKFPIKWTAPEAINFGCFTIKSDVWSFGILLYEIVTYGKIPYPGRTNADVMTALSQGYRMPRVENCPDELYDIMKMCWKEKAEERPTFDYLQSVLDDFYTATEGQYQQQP", "procedure": "as §1, §2"}, "PKCη(h)": {"biological_target": "PKCη(h) (Homo sapiens, UniProt P24723)", "sequence (P24723 whole entry)": "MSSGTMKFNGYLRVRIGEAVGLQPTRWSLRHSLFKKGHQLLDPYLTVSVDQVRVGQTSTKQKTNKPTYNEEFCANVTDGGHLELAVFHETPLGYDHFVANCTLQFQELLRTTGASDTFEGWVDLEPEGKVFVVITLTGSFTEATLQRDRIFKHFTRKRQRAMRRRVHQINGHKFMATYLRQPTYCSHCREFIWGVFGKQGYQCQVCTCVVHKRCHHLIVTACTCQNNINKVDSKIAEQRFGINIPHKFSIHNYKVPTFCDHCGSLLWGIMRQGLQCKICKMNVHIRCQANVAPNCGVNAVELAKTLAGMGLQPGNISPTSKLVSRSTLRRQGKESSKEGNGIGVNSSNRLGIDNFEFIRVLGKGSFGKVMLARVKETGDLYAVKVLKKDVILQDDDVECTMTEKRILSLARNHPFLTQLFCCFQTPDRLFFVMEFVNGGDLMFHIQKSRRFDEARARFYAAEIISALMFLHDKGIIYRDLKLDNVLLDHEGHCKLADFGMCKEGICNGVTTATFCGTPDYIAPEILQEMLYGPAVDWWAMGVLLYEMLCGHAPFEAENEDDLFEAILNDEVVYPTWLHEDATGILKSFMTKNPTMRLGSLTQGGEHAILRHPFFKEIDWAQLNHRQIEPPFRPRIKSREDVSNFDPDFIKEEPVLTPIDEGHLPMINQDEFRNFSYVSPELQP", "procedure": "as §1, §2"}}, "data": [{"sequence": "FAKLAARLYRKALARQLGVAA [MMI-0300]", "values": [{"measurement": "Abl(Y253F)(h) % activity", "setting": "Abl(Y253F)(h)", "result": 86, "unit": "%"}, {"measurement": "Abl(Q252H)(h) % activity", "setting": "Abl(Q252H)(h)", "result": 82, "unit": "%"}, {"measurement": "NEK11(h) % activity", "setting": "NEK11(h)", "result": 53, "unit": "%"}, {"measurement": "F1t4(h) % activity", "setting": "F1t4(h)", "result": 83, "unit": "%"}, {"measurement": "EphA8(h) % activity", "setting": "EphA8(h)", "result": 93, "unit": "%"}, {"measurement": "ULK3(h) % activity", "setting": "ULK3(h)", "result": 167, "unit": "%"}, {"measurement": "IR(h) % activity", "setting": "IR(h)", "result": 96, "unit": "%"}, {"measurement": "Lyn(h) % activity", "setting": "Lyn(h)", "result": 69, "unit": "%"}]}, {"sequence": "KAFAKLAARLYRKALARQLGVAA [MMI-0400]", "values": [{"measurement": "Abl(Y253F)(h) % activity", "setting": "Abl(Y253F)(h)", "result": 78, "unit": "%"}, {"measurement": "Abl(Q252H)(h) % activity", "setting": "Abl(Q252H)(h)", "result": 98, "unit": "%"}, {"measurement": "NEK11(h) % activity", "setting": "NEK11(h)", "result": 33, "unit": "%"}, {"measurement": "F1t4(h) % activity", "setting": "F1t4(h)", "result": 89, "unit": "%"}, {"measurement": "EphA8(h) % activity", "setting": "EphA8(h)", "result": 146, "unit": "%"}, {"measurement": "ULK3(h) % activity", "setting": "ULK3(h)", "result": 147, "unit": "%"}, {"measurement": "IR(h) % activity", "setting": "IR(h)", "result": 85, "unit": "%"}, {"measurement": "PKCη(h) % activity", "setting": "PKCη(h)", "result": 98, "unit": "%"}, {"measurement": "Lyn(h) % activity", "setting": "Lyn(h)", "result": 3, "unit": "%"}]}, {"sequence": "YARAAARQARAKALNRQLGVA (Mammalian) [MMI-0200]", "values": [{"measurement": "NEK11(h) % activity", "setting": "NEK11(h)", "result": 95, "unit": "%"}, {"measurement": "EphA8(h) % activity", "setting": "EphA8(h)", "result": 133, "unit": "%"}, {"measurement": "ULK3(h) % activity", "setting": "ULK3(h)", "result": 164, "unit": "%"}, {"measurement": "IR(h) % activity", "setting": "IR(h)", "result": 90, "unit": "%"}, {"measurement": "PKCη(h) % activity", "setting": "PKCη(h)", "result": 101, "unit": "%"}, {"measurement": "Lyn(h) % activity", "setting": "Lyn(h)", "result": 98, "unit": "%"}]}, {"sequence": "HRRIKAWLKKIKALARQLGVAA (Mammalian) [MMI-0500]", "values": [{"measurement": "Abl(Y253F)(h) % activity", "setting": "Abl(Y253F)(h)", "result": 29, "unit": "%"}, {"measurement": "Abl(Q252H)(h) % activity", "setting": "Abl(Q252H)(h)", "result": 40, "unit": "%"}, {"measurement": "NEK11(h) % activity", "setting": "NEK11(h)", "result": 2, "unit": "%"}, {"measurement": "F1t4(h) % activity", "setting": "F1t4(h)", "result": 73, "unit": "%"}, {"measurement": "EphA8(h) % activity", "setting": "EphA8(h)", "result": 337, "unit": "%"}, {"measurement": "ULK3(h) % activity", "setting": "ULK3(h)", "result": 177, "unit": "%"}, {"measurement": "IR(h) % activity", "setting": "IR(h)", "result": 95, "unit": "%"}, {"measurement": "PKCη(h) % activity", "setting": "PKCη(h)", "result": 45, "unit": "%"}, {"measurement": "Lyn(h) % activity", "setting": "Lyn(h)", "result": 31, "unit": "%"}]}]}
